{"source": "paper PMC2978731", "about": "(PLoS Pathogens, 2010)", "binders": {"B1": {"name": "Fab D5 (Fab, V domains shown)", "VH": "QVQLVQSGAEVRKPGASVKVSCKASGDTFSSYAISWVRQAPGQGLEWMGGIIPIFGTANYAQAFQGRVTITANESTSTAYMELSSLRSEDTAIYYCARDNPTLLGSDYWGAGTLVTVSS", "VL": "DIQMTQSPSTLSASIGDRVTITCRASEGIYHWLAWYQQKPGKAPKLLIYKASSLASGAPSRFSGSGSGTDFTLTISSLQPDDFATYYCQQYSNYPLTFGGGTKLEIK", "notes": "also called D5 (Fab format); D5 antibody; source: provided by Joseph Joyce (Merck Research Laboratories)"}, "B2": {"name": "IgG D5 (antibody, V domains shown)", "VH": "QVQLVQSGAEVRKPGASVKVSCKASGDTFSSYAISWVRQAPGQGLEWMGGIIPIFGTANYAQAFQGRVTITANESTSTAYMELSSLRSEDTAIYYCARDNPTLLGSDYWGAGTLVTVSS", "VL": "DIQMTQSPSTLSASIGDRVTITCRASEGIYHWLAWYQQKPGKAPKLLIYKASSLASGAPSRFSGSGSGTDFTLTISSLQPDDFATYYCQQYSNYPLTFGGGTKLEIK", "notes": "also called D5 monoclonal antibody; D5 IgG; source: provided by Joseph Joyce (Merck Research Laboratories); copies: 2 + 2"}}, "key": {"[1]": {"target": "T1, 5-Helix (tag-less version) (HIV-1 group M subtype B, HXB2 (gp41 …))", "T1 construct": "source: E. coli, purified from the insoluble fraction under denaturing conditions (Superdex-200, reverse-phase HPLC)", "assay": "ITC", "conditions": "both partners purified"}, "[2]": {"target": "T1, 5-Helix (tag-less version)", "assay": "cell-based or functional assay"}, "[3]": {"target": "T1, 5-Helix (tag-less version)", "assay": "ITC", "conditions": "both partners purified", "remark": "listed apart in the source"}}}
{"binder": "B1", "values": [{"measurement": "Kd", "setting": "[1]", "result": "~0.01", "unit": "µM"}, {"measurement": "HIV-1 neutralization IC50, Env-pseudotyped virus, 89.6 Env", "setting": "[2]", "result": 0.89, "unit": "µM"}, {"measurement": "HIV-1 neutralization IC50, Env-pseudotyped virus, HXB2 Env", "setting": "[2]", "result": 0.3, "unit": "µM"}, {"measurement": "HIV-1 neutralization IC50, Env-pseudotyped virus, JR CSF Env", "setting": "[2]", "result": 0.64, "unit": "µM"}, {"measurement": "HIV-1 neutralization IC50, Env-pseudotyped virus, SF162 Env", "setting": "[2]", "result": 1.3, "unit": "µM"}]}
{"binder": "B2", "values": [{"measurement": "stoichiometry N", "setting": "[3]", "result": "2 5-Helix per D5 IgG"}, {"measurement": "Kd", "setting": "[1]", "result": "< 0.02", "unit": "µM"}, {"measurement": "HIV-1 neutralization IC50, Env-pseudotyped virus, 89.6 Env", "setting": "[2]", "result": 2.24, "unit": "µM"}, {"measurement": "HIV-1 neutralization IC50, Env-pseudotyped virus, HXB2 Env", "setting": "[2]", "result": 0.23, "unit": "µM"}, {"measurement": "HIV-1 neutralization IC50, Env-pseudotyped virus, JR CSF Env", "setting": "[2]", "result": 0.64, "unit": "µM"}, {"measurement": "HIV-1 neutralization IC50, Env-pseudotyped virus, SF162 Env", "setting": "[2]", "result": 0.94, "unit": "µM"}]}
